{"source": "patent US20240287161A1", "about": "(NATIONAL UNIVERSITY CORPORATION TOTTORI UNIVERSITY, published 2024)", "key": {"[1]": {"biological_target": "T1, HCoV-OC43 trimeric S protein (amino acids 12-1299) with T4 foldon, histidine tag and strep-tag (HCoV-OC43, UniProt P36334 12-1291)", "T1 chain": "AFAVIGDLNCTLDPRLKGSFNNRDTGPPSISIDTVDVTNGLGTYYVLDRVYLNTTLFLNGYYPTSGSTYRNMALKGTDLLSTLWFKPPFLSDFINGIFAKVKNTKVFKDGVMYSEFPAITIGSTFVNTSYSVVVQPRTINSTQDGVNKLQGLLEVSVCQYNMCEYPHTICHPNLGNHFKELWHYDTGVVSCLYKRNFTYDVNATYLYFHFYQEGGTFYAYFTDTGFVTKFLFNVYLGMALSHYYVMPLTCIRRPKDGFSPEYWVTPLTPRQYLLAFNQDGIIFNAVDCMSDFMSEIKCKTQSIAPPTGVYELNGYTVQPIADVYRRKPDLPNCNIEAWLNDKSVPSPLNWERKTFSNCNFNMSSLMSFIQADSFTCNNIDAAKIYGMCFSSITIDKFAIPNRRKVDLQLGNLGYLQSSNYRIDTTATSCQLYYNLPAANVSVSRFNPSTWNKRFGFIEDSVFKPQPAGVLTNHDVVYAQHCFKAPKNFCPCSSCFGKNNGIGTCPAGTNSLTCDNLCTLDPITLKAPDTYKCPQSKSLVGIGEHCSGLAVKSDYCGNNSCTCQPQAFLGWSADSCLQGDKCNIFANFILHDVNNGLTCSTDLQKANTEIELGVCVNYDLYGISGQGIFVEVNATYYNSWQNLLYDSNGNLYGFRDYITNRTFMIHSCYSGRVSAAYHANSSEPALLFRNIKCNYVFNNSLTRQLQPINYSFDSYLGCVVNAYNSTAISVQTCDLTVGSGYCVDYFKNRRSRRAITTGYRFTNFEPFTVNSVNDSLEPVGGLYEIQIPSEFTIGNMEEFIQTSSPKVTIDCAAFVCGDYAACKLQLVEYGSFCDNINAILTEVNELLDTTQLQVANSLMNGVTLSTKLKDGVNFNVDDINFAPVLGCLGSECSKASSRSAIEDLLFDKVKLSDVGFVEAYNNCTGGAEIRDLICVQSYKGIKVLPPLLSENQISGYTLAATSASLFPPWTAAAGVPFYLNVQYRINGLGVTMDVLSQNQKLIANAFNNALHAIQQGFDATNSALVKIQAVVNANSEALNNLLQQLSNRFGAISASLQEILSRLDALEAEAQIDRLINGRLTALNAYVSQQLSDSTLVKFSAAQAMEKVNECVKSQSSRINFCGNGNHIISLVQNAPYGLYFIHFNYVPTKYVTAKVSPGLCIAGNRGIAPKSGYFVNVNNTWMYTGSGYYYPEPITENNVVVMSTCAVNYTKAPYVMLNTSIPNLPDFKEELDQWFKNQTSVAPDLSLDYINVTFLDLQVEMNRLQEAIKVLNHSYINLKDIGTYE", "assay": "ELISA on coated S-trimeric antigen, anti-human IgG-HRP [Human IgG3, NT-193]"}, "[2]": {"biological_target": "T2, HCoV-NL63 trimeric S protein (amino acids 22-1293) with T4 foldon, histidine tag and strep-tag (HCoV-NL63, UniProt Q6Q1S2 23-1293)", "T2 sequence": "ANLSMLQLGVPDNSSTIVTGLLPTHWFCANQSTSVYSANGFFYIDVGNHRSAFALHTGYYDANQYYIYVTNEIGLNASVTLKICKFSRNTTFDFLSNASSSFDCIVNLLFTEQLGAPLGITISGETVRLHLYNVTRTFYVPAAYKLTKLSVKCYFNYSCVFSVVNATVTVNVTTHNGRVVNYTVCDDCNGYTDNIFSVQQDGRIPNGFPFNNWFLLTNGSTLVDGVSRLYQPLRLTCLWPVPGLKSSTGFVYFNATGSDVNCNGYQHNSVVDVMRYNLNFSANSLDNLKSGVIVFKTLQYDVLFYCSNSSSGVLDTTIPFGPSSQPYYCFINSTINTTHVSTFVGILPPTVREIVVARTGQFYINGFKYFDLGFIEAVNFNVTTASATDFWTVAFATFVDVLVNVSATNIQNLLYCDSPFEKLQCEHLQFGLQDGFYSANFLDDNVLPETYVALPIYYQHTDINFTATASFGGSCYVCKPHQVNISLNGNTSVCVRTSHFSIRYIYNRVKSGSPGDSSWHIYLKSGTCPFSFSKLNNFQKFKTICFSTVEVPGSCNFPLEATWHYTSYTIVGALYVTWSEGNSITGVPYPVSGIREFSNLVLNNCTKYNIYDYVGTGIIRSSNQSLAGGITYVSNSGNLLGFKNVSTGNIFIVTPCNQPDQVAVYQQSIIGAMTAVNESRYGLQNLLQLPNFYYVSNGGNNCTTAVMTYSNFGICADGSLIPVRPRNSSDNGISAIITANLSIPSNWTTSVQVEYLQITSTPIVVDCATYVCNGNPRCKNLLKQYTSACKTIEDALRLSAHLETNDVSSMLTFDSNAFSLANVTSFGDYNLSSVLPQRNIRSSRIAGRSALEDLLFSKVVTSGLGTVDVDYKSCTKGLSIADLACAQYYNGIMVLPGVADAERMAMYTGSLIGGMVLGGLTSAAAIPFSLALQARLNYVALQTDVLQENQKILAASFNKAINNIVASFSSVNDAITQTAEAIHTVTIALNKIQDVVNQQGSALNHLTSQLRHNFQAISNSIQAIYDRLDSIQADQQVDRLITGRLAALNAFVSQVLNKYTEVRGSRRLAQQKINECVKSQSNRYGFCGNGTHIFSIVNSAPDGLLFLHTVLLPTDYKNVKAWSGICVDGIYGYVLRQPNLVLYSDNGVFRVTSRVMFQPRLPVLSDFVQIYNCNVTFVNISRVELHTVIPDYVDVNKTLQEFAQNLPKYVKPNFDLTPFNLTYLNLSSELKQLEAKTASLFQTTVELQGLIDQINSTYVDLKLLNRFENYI", "assay": "ELISA on coated S-trimeric antigen, anti-human IgG-HRP [Human IgG3, NT-193]"}}, "data": [{"binder": "NT-193, human IgG3 subclass (antibody, V domains shown) VH: EVQLQQWGAGLLKPSETLSLTCAVYGGSFSGYYWSWIRQPPGKGLEWIGEINHSGSTNYNPSLKSRVTISVDTSKNQFSLKLSSVTAADTAVYYCARGWDLDYYYGMDVWGQGTTVTVSS VL: DIRMTQSPSAMSASVGDRVTVTCRASQGIGNYLAWFQLKPGKVPKRLIYAASSLQSGVPARFSGGGSGTEFTLTISSLQPEDFATYYCLQHGFLPWTFGQGTKLEIK", "values": [{"measurement": "binding result", "setting": "[1]", "value": "no binding (tested: 1000 ng/ml)"}, {"measurement": "binding result", "setting": "[2]", "value": "no binding (tested: 1000 ng/ml)"}]}]}
